Results published in doi:10.1101/2024.06.26.600769 (bioRxiv, 2024).
No end group written: not given here.

B1: pol III* peptide, 16-mer of the polymerase III α subunit C-terminus with an N-terminal Trp (DWRGLIGSEQVELEFD) (peptide)
peptide: DWRGLIGSEQVELEFD
B2: pol IV* peptide, 15-mer of the polymerase IV C-terminus with an N-terminal Trp (GWLDPQMERQLVLGL) (peptide)
peptide: GWLDPQMERQLVLGL
B3: MutS* peptide, 16-mer with the clamp binding motif of MutS and an N-terminal Trp (GWATQVDGTQMSLLSV-NH2) (peptide)
peptide: GWATQVDGTQMSLLSV
modifications: not fully specified (C-terminus); printed as GWATQVDGTQMSLLSV-NH2
B4: MutL* peptide, 16-mer with the clamp binding motif of MutL and an N-terminal Trp (GWGEAPVCAQPLLIPL-NH2) (peptide)
peptide: GWGEAPVCAQPLLIPL
modifications: not fully specified (C-terminus); printed as GWGEAPVCAQPLLIPL-NH2

Experiments:
[1] = molecular target: T1, E. coli β-clamp (bacterial DNA sliding clamp), His6-tagged (E. coli, UniProt P0A988 1-366); assay: ITC
[2] = molecular target: T1, E. coli β-clamp (bacterial DNA sliding …); assay: NMR titration

T1 sequence (P0A988 whole entry): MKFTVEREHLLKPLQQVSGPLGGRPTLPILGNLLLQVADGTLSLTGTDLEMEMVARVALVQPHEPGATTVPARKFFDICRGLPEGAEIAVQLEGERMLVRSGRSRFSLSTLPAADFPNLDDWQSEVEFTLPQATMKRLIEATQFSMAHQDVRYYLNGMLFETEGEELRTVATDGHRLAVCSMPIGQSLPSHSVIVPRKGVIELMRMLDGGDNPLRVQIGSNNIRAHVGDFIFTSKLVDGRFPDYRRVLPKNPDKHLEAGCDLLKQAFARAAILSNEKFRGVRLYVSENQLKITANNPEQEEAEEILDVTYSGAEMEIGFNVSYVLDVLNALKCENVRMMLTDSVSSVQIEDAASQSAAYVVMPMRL

Binder | binding result [1] | binding result [2]
B1 | binds | 
B2 |  | binds
B3 |  | binds
B4 |  | binds
